Measured values as given in FireProtDB (doi:10.1021/bi00548a004).

B1: Tryptophan synthase alpha chain, P0A877 (parent)
chain: MERYESLFAQLKERKEGAFVPFVTLGDPGIEQSLKIIDTLIEAGADALELGIPFSDPLADGPTIQNATLRAFAAGVTPAQCFEMLALIRQKHPTIPIGLLMYANLVFNKGIDEFYAQCEKVGVDSVLVADVPVEESAPFRQAALRHNVAPIFICPPNADDDLLRQIASYGRGYTYLLSRAGVTGAENRAALPLNHLVAKLKEYNAAPPLQGFGISAPDQVKAAIDAGAAGAISGSAIVKIIEQHINEPEKMLAALKVFVQPMKAATRS

Variants of: B1
Conditions: Escherichia coli (strain K12), pH 7.8, Thermal, DSC, Sodium phosphate 1 mM, reversible: yes, structure 1WQ5, whole UniProt chain shown

Variant	ddG of mutation (higher = less stable) (57.8 °C, EDTA 0.2 mM) [kcal/mol]	heat capacity change of unfolding (57.8 °C, EDTA 0.2 mM) [kcal/mol/K]	Tm [°C]	change of melting temperature, mutant - wild type (higher = more stable) [°C]	heat capacity change of unfolding [kcal/mol/K]	unfolding enthalpy (calorimetric) [kcal/mol]	unfolding enthalpy (van 't Hoff) [kcal/mol]
G211R	-0.1	2.8	58	0.2	2.8	111	113
G211E	-0.6	2.7	59.6	1.8	2.7	109	107
